Data published in patent publication US20110189093A1 (PROSCAN RX PHARMA, published 2011).

B1: antibody PSf42.4 (antibody, V domains shown)
VH: EVKLQQSGAELVKPGASVKLSCTASGFSIRDTYMHWVRQRPEQGLEWITGIDPENGNSKYAPRFQDKATIIADTSSNTVHLQLDTLTSEDTAVYYCTRELAYWGQGTTVTVS
VL: DILMTQSPLTLSVIIGQPASFSCKSSHSLLHRDGRTYLNWLLQRPGQSPQRLIYLVSKLDSGVPDRFTGSGSGTDFTLKISRVEAEDLGVYYCWQGTHFPRTFGGGTKLEIKR
B2: antibody PSf47.1 (antibody, V domains shown)
VH: EVKLQESGPDLVKPGASVKVSCKASGYTFTVYVIHWVIQKPGQGLEWIGYINPYNDGAEYNENFKGKATLTSDKSSSTAYMELSSLTSEDSAVYYCTRGENYYTSRYGFFDVWGQGTTVTVS
VL: DILMPQSPSSLAVSAGEKVTMSCKSSQSLLNSRTRKNYLAWYQQKLGQSPKLLIYWASTRESGVPDRFTGSGSGTDFTLTISSVQAEDLAVYYCKQSYNFITFGAGTKLELKR
notes: also called mAb PSf47.1
B3: antibody PSf34.1 (antibody, V domains shown)
VH: EVQLEESGAELVKPGASVKLSCTASGFYIKDTYIHWVKQRPEEVLEWIGGIDPADGDTRYDPKFQGKATITADTSSNSAYLHLTSLTSEDTAVYFCARELAYWGAGTTVTVS
VL: not shown
notes: also called mAb PSf34.1
B4: antibody PSf42.1 (antibody, V domains shown)
VH: EVQLEESGAEFVRPGAAVKLSCTVSGLNIKDSYLHWVKQRPEQGLEWIGGIDPANGDVEYDPKFQGKAAITADTSSNTAYLRLSSLTSEDTAVYYCAPFPYWGAGTTVTVS
VL: B1 VL
B5: antibody PSf42.3 (antibody, V domains shown)
VH: EVQLQQSGAELAKPGASVKLSCTGSGFNIKDTYMHWVKQRPEQGLEWIGGIDPETGNTKFDPRFQDKATITSDTSSNTVLLQLSSLTSEDTAVYYCANLGRPFAHWGQGTTVTVS
VL: HSADPVSISCKSSQSLLHRDGKTYLNWVFQRPGQSPQRLIYLVSLVDSGVPDRFTGSGSGTDFTLKINRVEAEDLGVYYCWQGTHFPRTFGGGTKLEIKR

The binders below were run against T1, prostate specific membrane antigen (PSMA) on LNCaP cells (human, UniProt Q04609 1-750) (assay: saturation binding on whole LNCaP cells, detected with 125I goat anti-mouse IgG).
T1 construct: also called PSMA-expressing cells
T1 sequence (Q04609 whole entry): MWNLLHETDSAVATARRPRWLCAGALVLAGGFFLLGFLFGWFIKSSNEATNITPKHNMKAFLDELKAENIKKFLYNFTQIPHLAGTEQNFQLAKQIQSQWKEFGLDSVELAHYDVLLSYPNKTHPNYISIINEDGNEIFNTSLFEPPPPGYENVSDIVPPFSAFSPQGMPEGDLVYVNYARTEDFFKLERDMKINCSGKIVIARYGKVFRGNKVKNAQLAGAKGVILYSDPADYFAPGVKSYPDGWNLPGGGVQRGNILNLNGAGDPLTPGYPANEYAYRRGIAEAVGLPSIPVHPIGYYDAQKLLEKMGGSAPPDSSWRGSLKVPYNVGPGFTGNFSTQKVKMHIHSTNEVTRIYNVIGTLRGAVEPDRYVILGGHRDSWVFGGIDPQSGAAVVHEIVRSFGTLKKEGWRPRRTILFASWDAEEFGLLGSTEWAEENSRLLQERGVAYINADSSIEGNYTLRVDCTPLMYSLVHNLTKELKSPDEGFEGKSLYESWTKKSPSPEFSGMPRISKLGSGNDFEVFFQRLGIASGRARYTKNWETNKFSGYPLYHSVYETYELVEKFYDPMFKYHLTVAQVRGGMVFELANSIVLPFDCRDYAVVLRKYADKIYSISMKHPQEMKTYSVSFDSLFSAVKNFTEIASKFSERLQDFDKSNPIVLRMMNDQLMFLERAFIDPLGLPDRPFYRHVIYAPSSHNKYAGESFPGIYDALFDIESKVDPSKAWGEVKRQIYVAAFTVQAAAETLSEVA
Description: Antibody binding assay: Saturation binding studies were performed on whole cells with purified anti-PSMA MAb followed by detection of cellbound MAb using ¹²⁵I-labeled goat anti-mouse IgG. Briefly, nearly confluent LNCaP cells were rinsed with ice-cold PBS and scraped in PBS containing the protease inhibitor cocktail described above. Cells (7.5×10⁶ per tube) were incubated with 100 μL of antibody diluted in complete RPMI to various concentrations for 1 h at room temperature. […] Following removal of unbound secondary antibody by centrifugation, the radioactivity associated with the cell pellet was determined using a gamma counter. Non-specific binding was determined in the presence of a 100-fold molar excess of the antibody antigen PSMA₄₉₀₋₅₀₀. […] For these experiments, a parallel sample in which the primary MAb was replaced by diluent served as a control for background binding of the secondary antibody and was less than 0.5%. Counts were analyzed by non-linear regression of total binding (Y) according to the law of mass action using the formula Y=Bmax*X/(Kd+X), where Bmax, Kd, and X represent the maximal binding, the concentration of ligand at half maximal binding, and the concentration of primary antibody, respectively. The ¹²⁵I-labeled goat anti-mouse IgG used in these experiments was radio-iodinated using the chloramine T method. Briefly, 10 μg of goat anti-mouse IgG whole molecule was incubated with 300 pmol of chloramine T and 90 μCi of [¹²⁵I] sodium iodide in a final volume of 25 μL containing 0.5 M sodium phosphate (pH 7.5) for 20 min at room temperature before quenching the reaction with 100 μL of sodium metabisulfite at 2.6 mg/mL in 0.5 M sodium phosphate buffer (pH 7.5). The labeled antibody was purified from free iodide by gel filtration on Sephadex G25. The amount of free iodide contaminating the labeled antibody was evaluated by ITLC-SG and never exceeded 1%.
B1 gave a Bmax of 5.1 pmol/mg and a Kd of 34.1 nM. B2 was tested, and the Bmax was 4.6 pmol/mg. B3 was tested, and the Bmax was 4.8 pmol/mg. Binder B4 has a Bmax of 2.8 pmol/mg and a Kd of 14.7 nM. B5 showed a Bmax of 4.9 pmol/mg and a Kd of 20.4 nM.
